# Results: patent US9744220B2, “Compositions and methods for treating inflammatory diseases” (priority 2013, dated 2017)
# B1: sPDNF: N-terminal short-form of T cruzi PDNF that contains Trk-binding sites, recombinant; amino acids 1-588 of SEQ ID NO: 2; JR-100 is the commercial name (protein, listed as Trypanosoma cruzi)
# chain: MGKTVVVASRMFWLMFFVPLLLAICPSEPAYALAPGSSRVELFKRKNSTVPFEDKAGKVTERVVHSFRLPALVNVDGVMVAIADARYDTSNDNSLIDTVAKYSVDDGETWETQIAIKNSRVSSVSRVVDPTVIVKGNKLYVLVGSYYSSRSYWSSHGDARDWDILLAVGEVTKSTAGGKITASIKWGSPVSLKKFFPAEMEGMHTNQFLGGAGVAIVASNGNLVYPVQVTNKKKQVFSKIFYSEDDGKTWKFGKGRSDFGCSEPVALEWEGKLIINTRVDWKRRLVYESSDMEKPWVEAVGTVSRVWGPSPKSNQPGSQSSFTAVTIEGMRVMLFTHPLNFKGRWLRDRLNLWLTDNQRIYNVGQVSIGDENSAYSSVLYKDDKLYCLHEINTDEVYSLVFARLVGELRIIKSVLRSWKNWDSHLSSICTPADPAASSSESGCGPAVTTVGLVGFLSGNASQNVWEDAYRCVNASTANAERVRNGLKFAGVGGGALWPVSQQGQNQRYRFANHAFTLVASVTIHEAPRAASPLLGASLDSSGGKKLLGLSYDEKHQWQPIYGSTPVTPTGSWETGKRYHLVLTMANKI
# How the values were obtained:
# IL1-Ra, TSG-6 and COX-2 = experiment: Intravenous sPDNF into naïve mice, anti-inflammatory factor transcripts in heart and liver; assay type: in vivo
# Protocol: FIG. 2A is a graph showing stem cell marker expression in mice administered sPDNF. One set of three wild type C57BL/6 mice received intravenous (IV) PBS without (PBS) or with sPDNF (2 mg/kg) at 0, 3 and 24 hours (sPDNF 1d), and a second set IV sPDNF (2 mg/kg) for 6 days (sPDNF 6d). Mice were sacrificed 3 hr post injection and the indicated stem cells markers were quantified in the ventricles by real time PCR, and normalized to HPRT; *, p<0.05, **, p<0.001, ***, p<0.0001; SCF, stem cell factor, ns, not significant. FIG. 2B is a graph showing stem cell marker expression in MyD88^−/− mice administered sPDNF. TLR-deficient MyD88^−/− mice (C57BL/6 background) (2/group) were injected IV with a single dose of sPDNF (2 mg/kg), sacrificed at 3 hours post-injection, and the indicated cardiac stem cell markers assessed by qPCR. Data were normalized to HPRT and made relative to vehicle-treated controls (set at 1.0 and represented by the dashed line); **, P<0.01; and ***, P<0.005. FIG. 2C is a graph showing stem cell marker expression in mice administered sPDNF at various time points after injection. […] Cardiac Sca-1 and SCF transcripts were quantified by qPCR; **, P<0.001; ***, P<0.0005. FIG. 2D is a graph showing quantitation of Sca-1 expression in various organs of mice administered sPDNF. C57BL/6 mice (3 per group), average of two experiments) were injected IV with sPDNF at 4 mg/kg body weight or PBS, sacrificed 3 hours later, and Sca-1 mRNA quantified by qPCR in the liver, heart, colon and bone marrow (*, P<0.05, **, P<0.001; ns, not significant; dotted line represents Sca-1 mRNA of vehicle-treated mice set at 1.0, data are representative of 2 experiments. […] FIG. 2F is a graph showing quantitation of expression of inflammatory markers in mice administered sPDNF. Wild type and naïve mice (5 per group) were injected IV with a single dose of sPDNF (4 mg/kg), sacrificed 3 hr post-injection, and the L-1Ra, TSG-6, COX-2, and IDO transcripts quantified in the heart and liver. […]
# cardiac fibroblasts = experiment: sPDNF stimulation of primary cardiac fibroblasts, chemokine transcripts by qPCR; assay type: cell-based, mouse; settings: 3 hr, dose-dependent
# Protocol: FIG. 7A is a graph depicting MCP-1 and FKN expression in cardiomyocytes of mice infected with T cruzi. FIG. 7B is a graph depicting MCP-1 and FKN expression in cardiac fibroblasts of mice infected with T cruzi. T cruzi infection: Primary cultures of mouse cardiomyocytes (FIG. 7A) and cardiac fibroblasts (FIG. 7B) were plated in 6-well plates, infected with T cruzi Tulahuen strain (MOI=10) for 3, 24, and 72 hr, and MCP-1 and FKN transcripts were quantified by qPCR. Chemokine gene expression was normalized to HPRT and fold change calculated relative to uninfected cells. Points represent mean±SD fold change expression of triplicate samples. The experiment was repeated, and similar results were obtained. FIG. 7C is a graph depicting MCP-1 and FKN expression in cardiomyocytes of mice injected with sPDNF. FIG. 7D is a graph depicting MCP-1 and FKN expression in cardiac fibroblasts of mice injected with sPDNF. sPDNF stimulation: Primary cardiomyocytes (FIG. 7C) and cardiac fibroblasts (FIG. 7D) were plated in 6-well plates, serum starved overnight, then stimulated with the indicated concentration of sPDNF (3 hr), and MCP-1 and FKN transcripts were quantified by qPCR. Chemokine gene expression was normalized to HPRT and fold change calculated relative to vehicle-treated cells; *P<0.05, **P<0.01, and ***P<0.005. […]
molecule,measurement,setting,value
B1,expression of COX-2,"IL1-Ra, TSG-6 and COX-2",increased expression
same,expression of IL1-Ra,"IL1-Ra, TSG-6 and COX-2",increased expression
same,expression of TSG-6,"IL1-Ra, TSG-6 and COX-2",increased expression
same,FKN transcripts,cardiac fibroblasts,increase
same,MCP-1 transcripts,cardiac fibroblasts,increase
